Consider 1 molecule from patent US20130064834A1 (published 2013).

Experiment [1] deals with T1, mouse PCSK9, myc-myc-his tagged (mouse, UniProt Q80W65 35-694).
T1 construct: also called mPCSK9-mmh; mPCSK9
The experiment is described as follows: SPR, mAb captured on anti-hFc, 37C. Background: In SPR one partner is held on a chip, and binding of the other changes the refractive index at the surface.

The target in experiment [2] is T2, cynomolgus monkey (Macaca fascicularis) PCSK9, myc-myc-his tagged (cynomolgus monkey (Macaca fascicularis), UniProt A8T662 31-692 (Macaca nemestrina entry), limits assumed).
T2 construct: also called mfPCSK9-mmh; mfPCSK9
Put plainly: SPR, mAb captured on anti-hFc, 37C.

The target of experiment [3] is T3, rat (Rattus norvegicus) PCSK9, myc-myc-his tagged (rat (Rattus norvegicus), UniProt P59996 31-691).
T3 construct: also called rPCSK9-mmh; rPCSK9
Put plainly: SPR, mAb captured on anti-hFc, 37C.

The target of experiment [4] is T4, hPCSK9(D374Y)-mmh (human, UniProt Q8NBP7 31-692).
T4 construct: also called hPCSK(D374Y)-mmh
The experiment is described as follows: SPR, mAb captured on anti-hFc, 37C.

The target in experiment [5] is T5, Chimeric protein #1 (mPro-hCat-mC-term-mmh) (mouse; human, UniProt Q80W65 35-694).
T5 chain: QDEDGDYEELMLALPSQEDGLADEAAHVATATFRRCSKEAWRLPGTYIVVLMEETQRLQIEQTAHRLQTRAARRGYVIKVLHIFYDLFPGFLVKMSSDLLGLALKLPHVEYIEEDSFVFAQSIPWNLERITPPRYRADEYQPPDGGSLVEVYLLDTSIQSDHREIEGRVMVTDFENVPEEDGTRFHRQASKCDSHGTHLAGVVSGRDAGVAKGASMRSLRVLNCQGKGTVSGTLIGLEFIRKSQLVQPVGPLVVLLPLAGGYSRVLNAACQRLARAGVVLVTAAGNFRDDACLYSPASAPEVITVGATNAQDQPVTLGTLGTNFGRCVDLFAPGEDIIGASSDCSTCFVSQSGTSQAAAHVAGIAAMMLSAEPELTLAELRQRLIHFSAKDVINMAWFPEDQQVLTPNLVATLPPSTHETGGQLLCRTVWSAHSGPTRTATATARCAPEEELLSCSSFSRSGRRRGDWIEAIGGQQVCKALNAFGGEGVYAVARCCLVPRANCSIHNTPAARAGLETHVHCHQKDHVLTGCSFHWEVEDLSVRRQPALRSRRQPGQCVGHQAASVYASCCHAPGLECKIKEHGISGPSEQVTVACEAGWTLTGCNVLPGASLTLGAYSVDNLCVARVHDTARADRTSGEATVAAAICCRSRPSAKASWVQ
The experiment is described as follows: ELISA, mAb coated, 1.2 nM antigen. (In an ELISA, binding on a coated surface is turned into a signal by an enzyme label.)
Description: (§1) After 1 hr binding at RT, the plate was washed and bound test protein detected using HRP-conjugated anti-myc polyclonal antibody (++=OD>1.0; +=OD 0.4-1.0; −=OD<0.4).

Experiment [6] has as its target T1, mouse PCSK9, myc-myc-his tagged. The experiment is described as follows: ELISA, mAb coated, 1.2 nM antigen.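 Note: antigen allowed to bind for 1 h at room temperature, then captured protein revealed with an HRP-linked polyclonal anti-myc antibody and read as optical density.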
Description: as §1
Experiment [7] addresses Chimeric protein #2 (hPro-mCat-mC-term-mmh) (human; mouse, UniProt Q80W65 19-694). The experiment is described as follows: ELISA, mAb coated, 1.2 nM antigen.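 Note: antigen allowed to bind for 1 h at room temperature, then captured protein revealed with an HRP-linked polyclonal anti-myc antibody and read as optical density.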
Description: as §1
Experiment [8] has as its target T6, Human PCSK9-myc-myc-his (human, UniProt Q8NBP7 31-692).
T6 construct: also called hPCSK9-mmh; hPCSK9
The experiment is described as follows: ELISA, mAb coated, 1.2 nM antigen.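 Note: antigen allowed to bind for 1 h at room temperature, then captured protein revealed with an HRP-linked polyclonal anti-myc antibody and read as optical density.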
Description: as §1

In experiment [9] the target is T7, Chimeric protein #3 (mPro-mCat-hC-term-mmh) (mouse; human).
T7 chain: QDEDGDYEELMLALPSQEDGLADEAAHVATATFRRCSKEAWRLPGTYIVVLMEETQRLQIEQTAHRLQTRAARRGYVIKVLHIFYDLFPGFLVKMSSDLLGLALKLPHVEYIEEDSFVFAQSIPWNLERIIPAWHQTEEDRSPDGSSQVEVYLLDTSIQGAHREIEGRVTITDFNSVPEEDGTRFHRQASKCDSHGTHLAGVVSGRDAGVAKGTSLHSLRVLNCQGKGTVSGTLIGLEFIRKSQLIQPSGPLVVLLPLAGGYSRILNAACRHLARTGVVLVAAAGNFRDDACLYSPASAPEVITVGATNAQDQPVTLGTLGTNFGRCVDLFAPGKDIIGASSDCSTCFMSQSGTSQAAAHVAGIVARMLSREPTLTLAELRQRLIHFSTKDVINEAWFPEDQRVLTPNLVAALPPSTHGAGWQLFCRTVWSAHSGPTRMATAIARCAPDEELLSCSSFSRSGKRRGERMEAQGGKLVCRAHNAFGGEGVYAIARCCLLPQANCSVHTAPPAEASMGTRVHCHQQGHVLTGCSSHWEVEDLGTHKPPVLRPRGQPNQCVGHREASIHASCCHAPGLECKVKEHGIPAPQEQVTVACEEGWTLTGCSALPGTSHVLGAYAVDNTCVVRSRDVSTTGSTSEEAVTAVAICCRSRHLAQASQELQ
The experiment is described as follows: ELISA, mAb coated, 1.2 nM antigen.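 Note: antigen allowed to bind for 1 h at room temperature, then captured protein revealed with an HRP-linked polyclonal anti-myc antibody and read as optical density.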
Description: as §1

In experiment [10] the target is T4, hPCSK9(D374Y)-mmh. The experiment is described as follows: ELISA, mAb coated, 1.2 nM antigen.
Description: as §1
In experiment [11] the target is T1, mouse PCSK9, myc-myc-his tagged. Put plainly: SPR, mAb captured on anti-hFc, 25C.
Target sequence in this assay (Q80W65 35-694 limits assumed): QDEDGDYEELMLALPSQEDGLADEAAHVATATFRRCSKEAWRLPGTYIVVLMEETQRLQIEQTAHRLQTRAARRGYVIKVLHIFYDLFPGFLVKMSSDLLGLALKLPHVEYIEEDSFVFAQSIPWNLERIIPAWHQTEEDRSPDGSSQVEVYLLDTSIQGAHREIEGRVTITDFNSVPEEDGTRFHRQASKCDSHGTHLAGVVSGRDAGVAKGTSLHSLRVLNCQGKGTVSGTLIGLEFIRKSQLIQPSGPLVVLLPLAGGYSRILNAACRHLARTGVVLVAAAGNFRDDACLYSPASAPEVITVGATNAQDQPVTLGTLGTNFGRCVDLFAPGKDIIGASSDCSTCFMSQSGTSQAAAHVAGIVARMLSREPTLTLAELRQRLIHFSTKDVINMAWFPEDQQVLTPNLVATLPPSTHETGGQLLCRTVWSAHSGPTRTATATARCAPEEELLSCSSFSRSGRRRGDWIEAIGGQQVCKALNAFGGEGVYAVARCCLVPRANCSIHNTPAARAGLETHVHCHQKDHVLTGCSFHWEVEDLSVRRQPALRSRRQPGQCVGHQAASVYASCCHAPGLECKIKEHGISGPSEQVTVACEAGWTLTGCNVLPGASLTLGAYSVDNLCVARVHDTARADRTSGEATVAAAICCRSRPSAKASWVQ
Experiment [12] deals with T6, Human PCSK9-myc-myc-his. The experiment is described as follows: SPR, mAb captured on anti-hFc, 25C.

T2 sequence (A8T662 31-692 limits assumed): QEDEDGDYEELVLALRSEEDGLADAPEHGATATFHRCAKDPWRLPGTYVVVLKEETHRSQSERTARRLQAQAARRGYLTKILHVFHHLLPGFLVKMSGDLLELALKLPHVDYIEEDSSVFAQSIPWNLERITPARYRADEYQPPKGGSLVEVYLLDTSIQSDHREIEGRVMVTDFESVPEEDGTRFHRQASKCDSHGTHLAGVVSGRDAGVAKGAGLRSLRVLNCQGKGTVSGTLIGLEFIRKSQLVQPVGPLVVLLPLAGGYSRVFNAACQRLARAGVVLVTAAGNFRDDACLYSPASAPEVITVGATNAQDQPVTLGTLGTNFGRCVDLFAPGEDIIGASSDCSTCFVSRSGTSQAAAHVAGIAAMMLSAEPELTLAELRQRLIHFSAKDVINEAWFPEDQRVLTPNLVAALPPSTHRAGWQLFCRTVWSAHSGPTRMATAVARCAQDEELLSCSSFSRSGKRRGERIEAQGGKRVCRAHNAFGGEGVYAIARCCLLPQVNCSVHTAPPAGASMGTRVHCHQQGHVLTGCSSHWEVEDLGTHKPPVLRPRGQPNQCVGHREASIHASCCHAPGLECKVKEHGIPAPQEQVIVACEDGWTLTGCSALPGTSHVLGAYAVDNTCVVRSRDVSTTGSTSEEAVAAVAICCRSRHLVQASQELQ
T3 sequence (P59996 31-691 limits assumed): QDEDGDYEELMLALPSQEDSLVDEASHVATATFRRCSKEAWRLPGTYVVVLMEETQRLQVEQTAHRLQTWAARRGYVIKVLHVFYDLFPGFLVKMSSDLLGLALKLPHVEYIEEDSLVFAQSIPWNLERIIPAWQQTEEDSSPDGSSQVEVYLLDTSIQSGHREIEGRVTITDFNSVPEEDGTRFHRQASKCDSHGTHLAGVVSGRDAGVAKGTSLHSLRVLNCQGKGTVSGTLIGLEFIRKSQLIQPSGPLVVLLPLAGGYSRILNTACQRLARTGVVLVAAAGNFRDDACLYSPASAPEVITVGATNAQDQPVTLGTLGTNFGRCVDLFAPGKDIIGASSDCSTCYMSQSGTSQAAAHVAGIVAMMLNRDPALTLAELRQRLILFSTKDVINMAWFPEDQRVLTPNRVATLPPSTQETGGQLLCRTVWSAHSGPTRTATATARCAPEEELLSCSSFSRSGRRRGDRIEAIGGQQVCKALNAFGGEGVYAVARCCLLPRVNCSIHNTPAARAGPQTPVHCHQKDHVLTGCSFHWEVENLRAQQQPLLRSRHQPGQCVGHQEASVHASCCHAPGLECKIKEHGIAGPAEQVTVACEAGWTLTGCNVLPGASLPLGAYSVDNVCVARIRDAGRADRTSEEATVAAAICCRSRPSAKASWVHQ

B1: H1H316P (antibody, V domains shown)
VH: EVQLVESGGGLVQPGGSLRLSCAASGFTFNNYAMNWVRQAPGKGLDWVSTISGSGGTTNYADSVKGRFIISRDSSKHTLYLQMNSLRAEDTAVYYCAKDSNWGNFDLWGRGTLVTVSS
VL: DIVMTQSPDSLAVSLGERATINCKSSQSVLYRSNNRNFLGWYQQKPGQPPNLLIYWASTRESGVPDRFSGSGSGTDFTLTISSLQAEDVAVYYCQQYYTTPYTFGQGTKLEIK
notes: Fully human mAb made in CHO cells; also called mAb316P
With B1, the Kd in experiment [1] is 4.7 nM; in experiment [2] it was 1.8 nM; in experiment [3] it was 37.5 nM; in the experiment with hPCSK9(D374Y)-mmh [4] it was 4.2 nM; in experiment [11], 2.3 nM; with Human PCSK9-myc-myc-his [12], 0.58 nM. The T1/2 in experiment [1] is 3 min; in [2], 11 min; in experiment [3], 1 min; in the experiment with hPCSK9(D374Y)-mmh [4] it was 4 min; in experiment [11], 11 min; in the experiment with Human PCSK9-myc-myc-his [12], 36 min. Further, the OD (in [5]; in [6]; in experiment [7]; with Human PCSK9-myc-myc-his [8]; in [9]; in the experiment with hPCSK9(D374Y)-mmh [10]) was more than 1 od in each case.

What is called Kd is the concentration at which binding is half-saturated.
